We go through 2 molecules from PMC6486636, “LARP4A recognizes polyA RNA via a novel binding mechanism mediated by disordered regions and involving the PAM2w motif, revealing interplay between PABP, LARP4A and mRNA” (Nucleic Acids Research, 2019).

Holding throughout (conditions): both partners purified
In assay [1] the target is T1, LARP4A (1-287), N-terminal domain (human, UniProt Q71RC2 1-287).
T1 construct: LARP4A (LARP4), human, residues 1-287 (NTR 1-111 with PAM2w motif 13-26, plus La module 111-287); The NTD was cloned both with a TEV-cleavable His6 tag (pRSFDuet-1) and with a His6-SUMO tag (pET28SUMO, cut by ULP1); also called NTD; LARP4A NTD; source: E. coli Rosetta II, purified (His-Trap, tag cleaved, nickel column, heparin or DEAE); not shown: His6, N-terminal, cleaved
The experiment in a line: pull-down; His-SUMO-MLLE (200 ug) as bait mixed with 250 ug untagged LARP4A protein on ice, Ni-NTA agarose, washes in 50 mM Tris pH 7.25, 100 mM KCl, 0.2 mM EDTA, 1 mM DTT, 10 mM imidazole, elution with 500 mM imidazole, Coomassie SDS-PAGE.

Assay [2] has as its target T2, LARP4A NTD L15A (human, UniProt Q71RC2 1-287, L15A).
T2 construct: LARP4A (LARP4), human, residues 1-287, PAM2w single mutant; Generated from the NTD by site-directed mutagenesis; used untagged; source: E. coli Rosetta II, purified (His-Trap, tag cleaved, nickel column, heparin or DEAE); not shown: His6, N-terminal, cleaved
The assay is described as above.

For assay [3], the target named is T3, LARP4A NTD W22A (human, UniProt Q71RC2 1-287, W22A).
T3 construct: LARP4A (LARP4), human, residues 1-287, PAM2w single mutant; Generated from the NTD by site-directed mutagenesis; used untagged; source: E. coli Rosetta II, purified (His-Trap, tag cleaved, nickel column, heparin or DEAE); not shown: His6, N-terminal, cleaved
The assay is described as above.

The target of assay [4] is T4, LARP4A NTD W22F (human, UniProt Q71RC2 1-287, W22F).
T4 construct: LARP4A (LARP4), human, residues 1-287, PAM2w single mutant; Generated from the NTD by site-directed mutagenesis; used untagged; source: E. coli Rosetta II, purified (His-Trap, tag cleaved, nickel column, heparin or DEAE); not shown: His6, N-terminal, cleaved
The description is as above.

The target in assay [5] is T1, LARP4A (1-287), N-terminal domain. The assay can be described thus: native gel or EMSA; competition EMSA: MLLE 12.5-200 uM titrated into a pre-formed complex of 7.5 uM LARP4A NTD and 2 nM 32P-oligoA15; competition constant KC from the fraction of bound RNA.

T1 sequence (Q71RC2 1-287): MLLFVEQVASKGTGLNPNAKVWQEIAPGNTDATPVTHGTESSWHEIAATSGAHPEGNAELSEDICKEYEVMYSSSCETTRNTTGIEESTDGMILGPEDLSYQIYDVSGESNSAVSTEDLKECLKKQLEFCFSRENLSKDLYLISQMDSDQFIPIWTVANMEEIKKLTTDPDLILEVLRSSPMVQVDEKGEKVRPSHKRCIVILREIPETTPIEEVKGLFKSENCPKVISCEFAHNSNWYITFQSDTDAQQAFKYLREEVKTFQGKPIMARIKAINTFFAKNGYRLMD
T4 sequence (Q71RC2 1-287 W22F): as the sequence (Q71RC2 1-287) above, with W22F counted along it
T3 sequence (Q71RC2 1-287 W22A): as the sequence (Q71RC2 1-287) above, with W22A counted along it
T2 sequence (Q71RC2 1-287 L15A): as the sequence (Q71RC2 1-287) above, with L15A counted along it

B1: His-SUMO-MLLE (PABPC1 MLLE domain 544-626 fused with a His-tagged SUMO tag) (domain or fragment, UniProt P11940 544-626, looked up)
chain: PLTASMLASAPPQEQKQMLGERLFPLIQAMHPTLAGKITGMLLEIDNSELLHMLESPESLRSKVDEAVAVLQAHQAKEAAQKA
notes: Fragment 544-626 inserted into pET28SUMO; the tag was kept and used as the handle for Ni-NTA capture; source: E. coli Rosetta II, purified; not shown: His6-SUMO, N-terminal, kept
In the case of B1, the binding result in assay [1], in assay [2], in assay [3] and in assay [4] was “binds” each time.

B2: PABPC1 MLLE (544-626) (domain or fragment, UniProt P11940 544-626, looked up)
chain: B1 chain
notes: also called PABP MLLE; MLLE domain; source: E. coli Rosetta II, purified (glutathione agarose, 3C protease, nickel column, SEC); not shown: GST, N-terminal, cleaved
With B2, the binding result in assay [5] was “binds”.
